Source: paper PMC9352680, “A comprehensive thermodynamic model for RNA binding by the Saccharomyces cerevisiae Pumilio protein PUF4”
Numbering of substitutions follows the chain as printed. Names and notes keep the numbering of the source.

B1: Ic_S4_P4E.1_K4.1_C4.1_H4.1_A4.1_[T7A]_F4.1_[A9T]_T4.1 (ssRNA)
RNA: UUUGACAACUGAUCGUUCUUUCUUGUAUAAUUUUCUUUCUCGAUCAGUUGUCUUU
B2: Ic_S4_P4E.1_K4.1_C4.1_H4.1_A4.1_F4.1_[A9C]_T4.1 (ssRNA)
RNA: B1 RNA with A30U, U32C
B3: Ic_S4_P4E.1_K4.1_C4.1_H4.1_A4.1_F4.1_[T8A]_T4.1 (ssRNA)
RNA: B1 RNA with A30U, U31A, U32A
B4: Ic_S4_P4E.1_K4.1_C4.1_H4.1_A4.1_F4.1_T4.1 (ssRNA)
RNA: B1 RNA with A30U, U32A
B5: Ic_S4_P4E.1_K4.1_C4.1_H4.1_A4.1_F4.1_[T8C]_[A9C]_T4.1 (ssRNA)
RNA: B1 RNA with A30U, U31C, U32C
B6: Ic_S4_P5E.1_K5.1_C5.1_H5.1_A5.1_[T5C]_[T6C]_F5.1_[T8A]_[T9C]_[A10C]_T5.1 (ssRNA)
RNA: UUUGACAACUGAUCGUUCUUUCUUGUACCAACCUUCUUUCUCGAUCAGUUGUCUUU
B7: Ic_S4_P5E.1_K5.1_C5.1_H5.1_A5.1_[T5A]_[T6C]_[A7C]_F5.1_[T8G]_[T9C]_[A10C]_T5.1 (ssRNA)
RNA: B6 RNA with C28A, A30C, A31G
B8: Ic_S4_P5E.1_K5.1_C5.1_H5.1_A5.1_[T5C]_F5.1_[T9A]_[A10C]_T5.1 (ssRNA)
RNA: B6 RNA with C29U, A31U, C32A
B9: Ic_S4_P5E.1_K5.1_C5.1_H5.1_A5.1_[A7G]_F5.1_[T8G]_T5.1 (ssRNA)
RNA: B6 RNA with C28U, C29U, A30G, A31G, C32U, C33A
B10: Ic_S4_P5E.1_K5.1_C5.1_H5.1_A5.1_[T5A]_F5.1_[T9C]_T5.1 (ssRNA)
RNA: B6 RNA with C28A, C29U, A31U, C33A
B11: Ic_S4_P5E.1_K5.1_C5.1_H5.1_A5.1_[T5A]_[T6A]_[A7T]_F5.1_[T8C]_[T9C]_[A10G]_T5.1 (ssRNA)
RNA: B6 RNA with C28A, C29A, A30U, A31C, C33G
B12: Ic_S4_P5E.1_K5.1_C5.1_H5.1_A5.1_[T5C]_[T6A]_[A7C]_F5.1_[T9G]_[A10G]_T5.1 (ssRNA)
RNA: B6 RNA with C29A, A30C, A31U, C32G, C33G
B13: Ic_S4_P5E.1_K5.1_C5.1_H5.1_A5.1_[T6C]_[A7G]_F5.1_[T8G]_T5.1 (ssRNA)
RNA: B6 RNA with C28U, A30G, A31G, C32U, C33A
B14: Ic_S4_P5E.1_K5.1_C5.1_H5.1_A5.1_[T5C]_[A7C]_F5.1_[T8A]_[T9G]_[A10C]_T5.1 (ssRNA)
RNA: B6 RNA with C29U, A30C, C32G
B15: Ic_S4_P5E.1_K5.1_C5.1_H5.1_A5.1_[A7T]_F5.1_[T8C]_[T9C]_T5.1 (ssRNA)
RNA: B6 RNA with C28U, C29U, A30U, A31C, C33A
B16: Ic_S4_P5E.1_K5.1_C5.1_H5.1_A5.1_[T5G]_[T6C]_[A7G]_F5.1_[T8C]_[T9G]_[A10T]_T5.1 (ssRNA)
RNA: B6 RNA with C28G, A30G, A31C, C32G, C33U
B17: Ic_S4_P5E.1_K5.1_C5.1_H5.1_A5.1_[T5C]_[T6C]_[A7T]_F5.1_[T8C]_[T9C]_T5.1 (ssRNA)
RNA: B6 RNA with A30U, A31C, C33A
B18: Ic_S4_P5E.1_K5.1_C5.1_H5.1_A5.1_[T5C]_[T6C]_[A7G]_F5.1_[T8A]_[T9C]_[A10C]_T5.1 (ssRNA)
RNA: B6 RNA with A30G
B19: Ic_S4_P5E.1_K5.1_C5.1_H5.1_A5.1_[T5G]_[A7C]_F5.1_[T8A]_[T9C]_[A10T]_T5.1 (ssRNA)
RNA: B6 RNA with C28G, C29U, A30C, C33U
B20: Ic_S4_P5E.1_K5.1_C5.1_H5.1_A5.1_[T5A]_[T6C]_[A7C]_F5.1_[T9A]_[A10T]_T5.1 (ssRNA)
RNA: B6 RNA with C28A, A30C, A31U, C32A, C33U
B21: Ic_S4_P5E.1_K5.1_C5.1_H5.1_A5.1_[T5G]_F5.1_[T8A]_[T9C]_[A10C]_T5.1 (ssRNA)
RNA: B6 RNA with C28G, C29U
B22: Ic_S4_P5E.1_K5.1_C5.1_H5.1_A5.1_[T5G]_[A7T]_F5.1_[T9C]_[A10C]_T5.1 (ssRNA)
RNA: B6 RNA with C28G, C29U, A30U, A31U
B23: Ic_S4_P5E.1_K5.1_C5.1_H5.1_A5.1_[T6C]_[A7T]_F5.1_[T9A]_[A10G]_T5.1 (ssRNA)
RNA: B6 RNA with C28U, A30U, A31U, C32A, C33G
B24: Ic_S4_P5E.1_K5.1_C5.1_H5.1_A5.1_[T5A]_[T6A]_[A7T]_F5.1_[T9C]_[A10T]_T5.1 (ssRNA)
RNA: B6 RNA with C28A, C29A, A30U, A31U, C33U
B25: Ic_S4_P5E.1_K5.1_C5.1_H5.1_A5.1_[T5A]_[T6C]_[A7T]_F5.1_[T8A]_[T9G]_[A10T]_T5.1 (ssRNA)
RNA: B6 RNA with C28A, A30U, C32G, C33U
B26: Ic_S4_P5E.1_K5.1_C5.1_H5.1_A5.1_[T6A]_[A7C]_F5.1_[T8C]_[T9G]_[A10T]_T5.1 (ssRNA)
RNA: B6 RNA with C28U, C29A, A30C, A31C, C32G, C33U

Target: T1, PUF4 RNA-binding domain (Saccharomyces cerevisiae, UniProt P25339 537-888)
T1 sequence: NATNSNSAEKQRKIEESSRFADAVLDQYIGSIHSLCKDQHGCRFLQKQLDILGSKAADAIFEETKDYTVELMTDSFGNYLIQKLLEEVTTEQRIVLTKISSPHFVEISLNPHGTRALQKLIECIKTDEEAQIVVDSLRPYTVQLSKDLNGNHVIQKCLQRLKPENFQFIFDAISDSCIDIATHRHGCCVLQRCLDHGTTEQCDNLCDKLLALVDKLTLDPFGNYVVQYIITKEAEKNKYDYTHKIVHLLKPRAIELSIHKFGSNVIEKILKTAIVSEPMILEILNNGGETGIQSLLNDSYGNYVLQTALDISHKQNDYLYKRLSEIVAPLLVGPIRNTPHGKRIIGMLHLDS
Test: Mg; RNA-MaP; 20 mM Na-HEPES pH 7.4, 30 mM KOAc, 0.75 mM MgCl2, 0.1% Tween-20, 5% glycerol, 0.1 mg/mL BSA, 2 mM DTT; 25 C; 0.0125-409.6 nM protein
Conditions: tags: N-His6-TEV cleaved; C-SNAP kept, Cy3B-labelled; label: tethered on chip by stalled RNA polymerase

In order of rising Kd:
1. B4  0.362 nM
2. B3  2.9 nM
3. B8  3.28 nM
4. B23  3.48 nM
5. B2  4.49 nM
6. UCUCUUUGUACAUUUUCUCUU (ssRNA) [Ic_S1_P4E.1_K4.1_C4.1_H4.1_A4.1_[T5C]_F4.1_[A9T]_T4.1]  5.25 nM
7. B20  5.91 nM
8. B1  10.2 nM
9. UCUCUUUGUAAAUUGUCUCUU (ssRNA) [Ic_S1_P4E.1_K4.1_C4.1_H4.1_A4.1_[T5A]_F4.1_[A9G]_T4.1]  10.9 nM
10. B5  12.3 nM
11. B12  14.9 nM
12. UCUCUUUGUAAAUUCUCUCUU (ssRNA) [Ib_S1_P4E.1_K4.1_C4.1_H4.1_A4.1_[T5A]_F4.1_[A9C]_T4.1]  26.3 nM
13. B24  28.2 nM
14. B26  37.8 nM
15. B13  45.9 nM
16. B9  58.8 nM
17. B10  113 nM
18. B15  120 nM
19. B22  125 nM
20. B17  198 nM
21. B11  254 nM
22. B6  424 nM
23. B25  586 nM
24. B14  730 nM
25. B18  1020 nM
26. B19  1040 nM
27. B21  1160 nM
28. B7  1380 nM
29. B16  1620 nM
